Experimental data published in US20030235860A1, “Interactions between AR, ER, TR2, and TR4” (priority 1999, published 2003).

Experiments:
[1] = target: TR4-DR1 (Homo sapiens, UniProt P49116); settings: increasing amounts of in vitro translated AR (1, 2, 4 μl)
Protocol: EMSA was performed as described previously. […] Briefly, the reaction was performed by incubating the 32P-end labeled DR1 probe with in vitro translated TR4 (1 ml) with or without an increasing amount of AR (1, 2, 4 ml). The EMSA incubation buffer is 10 mM HEPES, pH 7.9, 2% (v/v) glycerol, 100 mM KCl, 1 mM EDTA, 5 mM MgCl, and 1 mM DTT. For the antibody supershifted analysis, 1 ml of monoclonal anti-TR4 antibody (#15) was added to the reaction. […] The radioactive gel was analyzed by autoradiography.
One μl of in vitro translated TR4 protein was incubated with increasing amounts of in vitro translated AR (1 μl, 2 μl, and 4 μl) in EMSA reaction buffer (10 mM HEPES pH 7.9, 2% (v/v) glycerol, 100 mM KCl, 1 mM EDTA, 5 mM MgCl2, and 1 mM DTT) for 15 min. 32P-end labeled DR1 was added into the protein mixture and incubated for 15 min before loading. For the antibody supershift assay, 1 μl of monoclonal anti-TR4 antibody was added to the reaction and applied to a 5% native polyacrylamide gel. The radioactive gel was analyzed by autoradiography.

[2] = tested on: PR; assay: Endogenous PR expression in T47D cells (Northern / Western); format: cell-based, human
Protocol: The method was used as previously described, Lee & Chang. (1996) J. Biol. Chem. 271. 10405-10412, with some modifications. Briefly. 5 μg of pCMV-TR2 was transiently transfected into T47D cells and lysed in RIPA buffer (10 mM sodium phosphate, pH 7.0. 150 mM NaCL, 2 mM EDT A. 1% (w/v) Nonidet P-40, 0.1% (w/v) SDS. 1% (w/v) sodium deoxycholate) with freshly adding proteinase inhibitors. The soluble protein was quantified using the Bio-Rad Protein Assay reagent (Bio-Rad Laboratories) and 50 μg soluble proteins were loaded onto SDS/10% PAGE and then transferred to Immobion-P transfer membrane (Millipore). After the blocking reaction overnight, the membrane was incubated with […] anti-PR polyclonal antibody (H-190. Santa Cruz) in PBS(−) containing 0.1% Skim milk for 2 h at room temperature. The membrane was washed and then incubated in 15 μCi 125I] of protein-A (DuPont NEN)/30 ml of PBS(−) containing 0.1% Skim milk for 1 h at room temperature. The western blots were autoradiographed and quantitated by using Phosphorlmager.
RNA isolation and Northern blot analysis were performed as previously described. Young, et al., J. Biol. Chem. 273,20877-20885 (1998).
Next it was determined if TR2 could repress the ER endogenous target gene expression. PR was chosen because it is well studied as an E2-ER target gene in T47D cells. Misrahi et al., Biochem. Biophys. Res. Commun. 143, 740-748 (1987). […] Cells were then used for RNA isolation (Northern blot analysis) and lysate protein extraction (Western blot analysis). For RNA analysis, total RNAs were isolated, and Northern blots were performed using [32P] labeled PR cDNA probes. The membrane was autoradiographed. For Protein Western blot analysis, cells lysates were prepared and PR proteins were visualized by radioimmunoblot. The membrane was autoradiographed to Phosphorimager and was quantitated by ImageQuant software.

[3] = tested on: MCF7-TR2 cells; assay: MTT growth assay, MCF7-TR2 cells; format: cell-based
Protocol: (A) Growth assays were performed by MTT method as instructed by manufacturer (Sigma). 5×10^3 MCF7-pBIG and MCF7-TR2 cells were seeded in 24-well plates and incubated in RPMI with 10% CD-FCS for 48 h. […] After 3- and 5-day treatment, cells were harvested for MTT assay. Data represents the relative folds of MTT O.D.570 values at day 5 divided by that at day 3. […] Cells were then trypsinized and fixed overnight in 70% Ethanol. After cells were incubated with 1 mg/ml RNase A (Sigma) and propidium iodide (Roche Molecular Biochemicals), the DNA contents of cells were measured by a flow cytometry. (C) Percentage of growth suppression by TR2. MCF7-TR2 cells were seeded at 5×10^3 cells per well in 24-well plates. […] The treatments were changed every two days. The indices of cell growth were determined by MTT assay. The MTT values from cells without doxycycline were set as 100% in each kind of treatment. Values are represented by the percentage of growth suppression from cells with doxycycline to that without doxycycline.

[4] = tested on: pS2; assay: Northern blot of pS2 in MCF-7-TR4 cells; format: cell-based; settings: 2 μg/ml Dox, E2
[5] = target: T1, AR (Homo sapiens, UniProt P10275, DEL79-80/DUP473-473); assay: Immunocytofluorescence of AR localization in DU145 cells; format: cell-based; parameters: expressed in transfected cells; host or cells: DU145 cells; settings: absence of DHT
T1 sequence (P10275 with tags, fused parts or gaps DEL79-80/DUP473-473): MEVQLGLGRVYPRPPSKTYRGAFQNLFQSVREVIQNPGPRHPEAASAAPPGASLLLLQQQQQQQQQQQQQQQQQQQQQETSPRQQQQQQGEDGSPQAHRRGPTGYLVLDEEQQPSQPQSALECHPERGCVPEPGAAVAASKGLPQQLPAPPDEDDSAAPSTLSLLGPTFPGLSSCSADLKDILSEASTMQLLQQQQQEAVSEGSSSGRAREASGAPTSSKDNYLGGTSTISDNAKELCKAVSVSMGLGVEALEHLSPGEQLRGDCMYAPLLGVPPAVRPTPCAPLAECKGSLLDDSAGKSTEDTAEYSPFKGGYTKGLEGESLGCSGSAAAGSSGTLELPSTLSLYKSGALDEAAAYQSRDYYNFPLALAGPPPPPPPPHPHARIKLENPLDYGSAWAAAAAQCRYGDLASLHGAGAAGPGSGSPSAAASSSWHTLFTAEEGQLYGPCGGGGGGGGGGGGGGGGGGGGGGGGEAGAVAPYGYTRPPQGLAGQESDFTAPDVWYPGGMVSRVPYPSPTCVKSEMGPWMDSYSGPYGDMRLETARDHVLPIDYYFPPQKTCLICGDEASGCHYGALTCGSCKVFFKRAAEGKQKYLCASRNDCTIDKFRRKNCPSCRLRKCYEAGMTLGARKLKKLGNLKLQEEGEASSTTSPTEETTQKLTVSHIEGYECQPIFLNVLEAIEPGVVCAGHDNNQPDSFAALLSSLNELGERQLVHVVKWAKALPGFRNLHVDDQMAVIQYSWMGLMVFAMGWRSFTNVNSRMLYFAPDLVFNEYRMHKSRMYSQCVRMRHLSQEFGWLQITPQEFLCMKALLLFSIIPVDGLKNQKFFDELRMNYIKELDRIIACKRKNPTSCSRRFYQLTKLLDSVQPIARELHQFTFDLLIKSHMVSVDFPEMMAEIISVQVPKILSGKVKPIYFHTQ
Protocol: DU145 cells were seeded on two-well Lab Tek Chamber slides (Nalge Nunc International) 18 h before transfection. One to two μg of DNA per 10^5 cells was transfected by the FuGENETM 6 transfection reagent (Boehringer-Mannheim). […] Immunostaining was performed by incubating with anti-AR polyclonal antibody (NH27), anti-TR4 monoclonal antibody (#15), and anti-ERa monoclonal antibody (C-314, Santa Cruz), followed by incubation with either fluorescein-conjugated goat anti-rabbit or anti-mouse antibodies (ICN Pharmaceuticals, Inc.). […] The slides were photographed under 100-fold magnification using confocal microscopy.
An immunocytofluorescence assay was then applied to determine the subcellular localization of the AR and TR4 in DU145 cells. DU145 cells were seeded on two-well Lab Tek Chamber slides (Nalge Nunc International) 18 hours before transfection. One to two μg of DNA per 105 cells was transfected either with AR (unliganded or liganded), TR4, or ER alone or in combination with the FuGENETM6 transfection reagent (Boehringer-Mannheim). […] Immunostaining was performed by incubation with the anti-AR polyclonal antibody, anti-TR4 monoclonal antibody, or anti-ERa monoclonal antibody, followed by incubation with either fluorescein-conjugated goat anti-rabbit or anti-mouse antibodies (ICN Pharmaceuticals, Inc.).

For AR: androgen receptor, SEQ ID NO:31, the “Specific TR4-DR1 band” value [1] was “decreased”.

B1: TR2: human testicular orphan nuclear receptor 2, 603 amino acids (protein, UniProt P13056 1-603, looked up)
chain: MATIEEIAHQIIEQQMGEIVTEQQTGQKIQIVTALDHNTQGKQFILTNHDGSTPSKVILARQDSTPGKVFLTTPDAAGVNQLFFTTPDLSAQHLQLLTDNSPDQGPNKVFDLCVVCGDKASGRHYGAVTCEGCKGFFKRSIRKNLVYSCRGSKDCIINKHHRNRCQYCRLQRCIAFGMKQDSVQCERKPIEVSREKSSNCAASTEKIYIRKDLRSPLTATPTFVTDSESTRSTGLLDSGMFMNIHPSGVKTESAVLMTSDKAESCQGDLSTLANVVTSLANLGKTKDLSQNSNEMSMIESLSNDDTSLCEFQEMQTNGDVSRAFDTLAKALNPGESTACQSSVAGMEGSVHLITGDSSINYTEKEGPLLSDSHVAFRLTMPSPMPEYLNVHYIGESASRLLFLSMHWALSIPSFQALGQENSISLVKAYWNELFTLGLAQCWQVMNVATILATFVNCLHNSLQQDKMSTERRKLLMEHIFKLQEFCNSMVKLCIDGYEYAYLKAIVLFSPDHPSLENMEQIEKFQEKAYVEFQDYITKTYPDDTYRLSRLLLRLPALRLMNATITEELFFKGLIGNIRIDSVIPHILKMEPADYNSQIIGHSI
modifications: full-length
notes: human testicular orphan nuclear receptor 2, 603 amino acids
In the case of B1, the “E2-induced PR expression at mRNA and protein levels” value ([2]; T47D cells and MCF7 cells, Example 2) is reported as “repress”, the “Expression of endogenous PR mRNA” value ([2]; T47D cells transfected with pCMV-TR2, 10 nM E2) is reported as “clearly repressed” and the “Endogenous PR expression (Western blot)” value ([2]; T47D cells, similar in MCF7) is reported as “repress”. The “Cell growth suppressed by TR2, compared to cells without doxycycline” value ([3]; all-trans retinoic acid treated cells (all-trans RA)) was 29-45%, the “Cell growth suppressed by TR2, compared to cells without doxycycline” value ([3]; presence of E2, 6- and 8-day treatments) was 71-72% and the “Cell growth suppressed by TR2, compared to cells without doxycycline” value ([3]; under 5 μM tamoxifen treatment) was 8-9%.

B2: TR4: human testicular orphan nuclear receptor 4, SEQ ID NO:16; expressed from plasmid or in vitro translated (protein)
chain: MTSPSPRIQIISTDSAVASPQRIQGSEPASGPLSVFTSLNKEKIVTDQQTGQKIQIVTAVDASGSPKQQFILTSPDGAGTGKVILASPETSSAKQLIFTTSDNLVPGRIQIVTDSASVERLLGKTDVQRPQVVEYCVVCGDKASGRHYGAVSCEGCKGFFKRSVRKNLTYSCRSSQDCIINKHHRNRCQFCRLKKCLEMGMKMESVQSERKPFDVQREKPSNCAASTEKIYIRKDLRSPLIATPTFVADKDGARQTGLLDPGMLVNIQQPLIREDGTVLLATDSKAETSQGALGTLANVVTSLANLSESLNNGDTSEIQPEDQSASEITRAFDTLAKALNTTDSSSSPSLADGIDTSGGGSIHVISRDQSTPIIEVEGPLLSDTHVTFKLTMPSPMPEYLNVHYICESASRLLFLSMHRARSIPAFQGLGQDCNTSLVRACWNELFTLGLAQCAQVMSLSTILAAIVNHLQNSIQEDKLSGDRIKQVMEHIWKLQEFCNSMANWDIDGYEYAYLKAIVLFSPDHPGLTSTSQIEKFQEKAQMELQDYVQKTYSEDTYRLARILVRLPALRLMSSNITEELFFTGLIGNVSIDSIIPYILKMETAEYNGQITGVSL
With B2 the “Expression of ER endogenous target gene pS2” value [4] was “repress” and the “Subcellular localization of unliganded AR on co-transfection” value [5] was “moves into the nucleus”.
